The record followed here is publication PMC11218954 (PLOS ONE, 2024).

“And” between values parts separate entries of the source, which are not always exact repeats. Equal values may be shown once.

Sequences and labels used below:
B1: αF1Ig AM2 (antibody, V domains shown)
VH: QVQLVESGGGLVKPGGSLRLSCAASGFTFSDYYMSWIRQAPGKGLEWVSYISGSGSIIYYADSVKGRFTISRDNAKNSLYLQMNSLRAEDTAVYYCAKEIRKHDAFDIWGQGTMVTVSS
VL: DIRMTQSPSSLSASVGDRVTITCRASRSISGYLNWYQQKPGKAPKLLIYATSSLQSGVPSRFSGSGSGTDFTLTISSLQPEDFATYYCQQSYSTPSSFGQGTKVDIK
notes: also called aF1Ig AM2; source: HEK293 cells, produced by ATUM; purified IgG
B2: αF1Ig 2 (antibody, V domains shown)
VH: QVQLVESGGGLVKPGGSLRLSCAASGFTFSDYYMSWIRQAPGKGLEWVSYISSSGSIIYYADSVKGRFTISRDNAKNSLYLQMNSLRAEDTAVYYCAKEIRRHDAFDIWGQGTMVTVSS
VL: not shown
notes: also called aF1Ig 2; aF1_2; source: HEK293 cells, produced by ATUM; purified IgG
B3: αF1Ig 8 (antibody, V domains shown)
VH: QVQLQQWGAGLLKPSETLSLTCAVYGGSFSGYYWSWIRQPPGKGLEWIGEINHSGNTNYNPSLKSRVTISVDTSKNQFSLQLNSVTPEDTAVYYCARTRGYFDLWGRGTLVTVSS
VL: QPVLTQSPSVSVSPGQTASITCSGDKLGDRYASWYQQKPGQSPVLVIYQDTKRPSGIPERFSGSNSGNTATLTISGTQAMDEADYYCQSWDSSAAVFGTGTKLTVL
notes: also called aF1Ig 8; aF1_8; source: HEK293 cells, produced by ATUM; purified IgG
B4: αF1Ig AM8 (antibody, V domains shown)
VH: QVQLQQWGAGLLKPSETLSLTCAVYGGSFSGYYWSWIRQPPGKGLEWIGEINRSGNTNYNPSLKSRVTISVDTSKNQFSLQLNSVTPEDTAVYYCARTRGYFDLWGRGTLVTVSS
VL: QPVLTQSPSVSVSPGQTASITCSGDKLGGRYASWYQQKPGQSPVLVIYQDTKRPSGIPERFSGSNSGNTATLTISGTQAMDEADYYCQSWDSSAAVFGTGTKLTVL
notes: also called aF1Ig AM8; source: HEK293 cells, produced by ATUM; purified IgG
B5: αF1Ig AM2 (affinity matured anti-F1 immunoglobulin G type 1) (antibody, V domains shown)
VH: QVQLVESGGGLVKPGGSLRLSCAASGFTFSDYYMSWIRQAPGKGLEWVSYISGSGSIIYYADSVKGRFTISRDNAKNSLYLQMNSLRAEDTAVYYCAKEIRKHDAFDIWGQGTMVTVSS
VL: DIRMTQSPSSLSASVGDRVTITCRASRSISGYLNWYQQKPGKAPKLLIYATSSLQSGVPSRFSGSGSGTDFTLTISSLQPEDFATYYCQQSYSTPSSFGQGTKVDIK
notes: IgG1; also called αF1 AM2; source: HEK293 cells, produced by ATUM, purified IgG
B6: αF1Ig 2 (parental anti-F1 immunoglobulin G type 1) (antibody, V domains shown)
VH: QVQLVESGGGLVKPGGSLRLSCAASGFTFSDYYMSWIRQAPGKGLEWVSYISSSGSIIYYADSVKGRFTISRDNAKNSLYLQMNSLRAEDTAVYYCAKEIRRHDAFDIWGQGTMVTVSS
VL: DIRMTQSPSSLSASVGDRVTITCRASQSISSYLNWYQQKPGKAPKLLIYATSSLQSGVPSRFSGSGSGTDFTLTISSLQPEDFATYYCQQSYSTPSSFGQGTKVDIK
notes: IgG1; also called parental IgG 2; original anti-F1 IgG 2; source: HEK293 cells, produced by ATUM, purified IgG
B7: αF1Ig AM8 (affinity matured anti-F1 immunoglobulin G type 1) (antibody, V domains shown)
VH: QVQLQQWGAGLLKPSETLSLTCAVYGGSFSGYYWSWIRQPPGKGLEWIGEINRSGNTNYNPSLKSRVTISVDTSKNQFSLQLNSVTPEDTAVYYCARTRGYFDLWGRGTLVTVSS
VL: QPVLTQSPSVSVSPGQTASITCSGDKLGGRYASWYQQKPGQSPVLVIYQDTKRPSGIPERFSGSNSGNTATLTISGTQAMDEADYYCQSWDSSAAVFGTGTKLTVL
notes: IgG1; also called aF1Ig AM8; αF1 AM8; source: HEK293 cells, produced by ATUM, purified IgG
B8: αF1Ig 8 (parental anti-F1 immunoglobulin G type 1) (antibody, V domains shown)
VH: QVQLQQWGAGLLKPSETLSLTCAVYGGSFSGYYWSWIRQPPGKGLEWIGEINHSGNTNYNPSLKSRVTISVDTSKNQFSLQLNSVTPEDTAVYYCARTRGYFDLWGRGTLVTVSS
VL: QPVLTQSPSVSVSPGQTASITCSGDKLGDRYASWYQQKPGQSPVLVIYQDTKRPSGIPERFSGSNSGNTATLTISGTQAMDEADYYCQSWDSSAAVFGTGTKLTVL
notes: IgG1; also called parental IgG 8; original anti-F1 IgG 8; source: HEK293 cells, produced by ATUM, purified IgG

One test addresses T1, recombinant F1 antigen of Y. pestis, monomer enriched (Yersinia pestis, strain , UniProt P26948).
T1 construct: source: expressed in E. coli; BEI NR-44223, monomer enriched
Put plainly: SPR. The following applies: both partners purified.
In the case of B1, the Kd was 2.4 nM and 2.3 nM and 1.2 nM.
Same read-out and setting: to B2 belongs 2.2 nM and 1.3 nM and 2.8 nM and 1.2 nM; to B3, 5.6 nM and 9.7 nM and 7.4 nM and 6 nM; to B4, 1.5 nM and 2.4 nM and 1.3 nM and 1.6 nM.

The next test addresses T2, soluble recombinant F1 antigen, monomer-enriched (Yersinia pestis, strain , UniProt P26948).
T2 construct: source: bought: BEI Resources NR-44223, expressed in E. coli, monomer enriched
As to the kind of experiment: SPR. Particulars: both partners purified.
Turning to B5, the Kd was determined as 2.7 nM.
On the same count and under the same terms, the figure for B6 is 1.9 nM; for B7 it is 1.9 nM.
As for B8, the Kd was found to be 7.4 nM.

Usually Kd stands for a measure of binding affinity in units of concentration.
